The results in this text go back to patent US20220119502A1 (ANN AND ROBERT H LURIE CHILDREN S HOSPITAL OF CHICAGO, published 2022).

Experiment [1] concerns the target KD peptide (NS4A peptide 2), BSA conjugated. Put plainly: ELISA.
Experiment [2] deals with T1, bovine serum albumin (Fraction V, Fisher BP1600) (bovine, UniProt P02769 25-607).
T1 construct: also called BSA
Briefly: polyreactivity ELISA.

Experiment [3] deals with multiple related peptides of hepacivirus C NS4A (animal virus peptide array). Briefly: animal virus peptide array, 2.5 ug/ml.
The target of experiment [4] is integral membrane protein 2B (ITM2B) (human, UniProt Q9Y287 1-266). Briefly: HuProt v4.0 human proteome array, 1 ug/ml.
Sequence of integral membrane protein 2B (ITM2B) (Q9Y287 whole entry): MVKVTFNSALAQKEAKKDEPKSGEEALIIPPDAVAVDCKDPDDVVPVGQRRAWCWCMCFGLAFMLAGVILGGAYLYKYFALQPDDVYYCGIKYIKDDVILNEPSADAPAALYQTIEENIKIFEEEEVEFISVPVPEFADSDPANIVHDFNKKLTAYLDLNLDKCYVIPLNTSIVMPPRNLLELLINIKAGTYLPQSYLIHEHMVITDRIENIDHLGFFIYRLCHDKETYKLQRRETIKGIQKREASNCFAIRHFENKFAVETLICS

T1 sequence (P02769 25-607 limits assumed): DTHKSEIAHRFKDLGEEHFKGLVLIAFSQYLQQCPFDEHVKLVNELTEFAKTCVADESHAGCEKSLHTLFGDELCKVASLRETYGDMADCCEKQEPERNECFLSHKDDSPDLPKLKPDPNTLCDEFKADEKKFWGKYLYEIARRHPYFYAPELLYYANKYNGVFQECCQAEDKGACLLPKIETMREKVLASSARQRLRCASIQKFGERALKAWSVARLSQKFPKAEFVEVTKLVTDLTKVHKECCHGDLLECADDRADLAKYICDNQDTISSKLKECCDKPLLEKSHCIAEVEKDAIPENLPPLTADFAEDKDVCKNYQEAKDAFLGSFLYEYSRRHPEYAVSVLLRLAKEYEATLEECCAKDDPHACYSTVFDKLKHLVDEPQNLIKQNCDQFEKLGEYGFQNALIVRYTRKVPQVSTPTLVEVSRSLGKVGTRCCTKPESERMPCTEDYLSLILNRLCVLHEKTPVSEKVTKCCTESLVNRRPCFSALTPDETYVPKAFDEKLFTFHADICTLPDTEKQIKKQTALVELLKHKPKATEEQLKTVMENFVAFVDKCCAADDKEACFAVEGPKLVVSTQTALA

B1: KD9-1B5 (antibody, V domains shown)
VH: QVQLQESGPGLVKPSETLSLTCTVSGGSINSYYWSWIRQPPGKGLEWIGYIYYSGSTNYNPSLKSRVTISVDTSKNQFSLRLSSVTAADTAVYYCARHPTAGTSYGMDVWGQGTTVTV
VL: QSALTQPASESGSPGQSITISCTGTTSDVGSYNLVSWYQQHPGKAPKLMIYEGTKRPSGVSNRFSGSKSGNTASLTISGLQPEDEADYYCCSYAGTTTYVFGTGTKVTVL
Regarding B1, in experiment [1], the OD450 (KD peptide minus scrambled peptide) was below 0.04 OD.

B2: KD6-2B2 (antibody, V domains shown)
VH: EVQLVESGGGVAQPGTSLRLSCEASGFTFRDYAMRWVRQAPGKGLEWVAFIWNDGSKKYYTDSVRGRFTISRDNSKNMLYLQMDSLRAEDTALYYCARKMSEDDAFDLWGQGTMVTV
VL: DIQMTQSPSTLSASAGDRVTITCRASQSVSKYLAWYQQKPGKAPRLLIYKASSLQSGVPSRFSGSGSGTEFTLTISSLQPDDFATYYCQHYNTYPSWTFGQGTKVEIK
notes: also called rabbit KD6-2B2; KD36-2B32
On to B2, for which, in experiment [2], the binding result was “no binding (tested: 10, 1, and 0.1 ug/ml)”.

B3: KD8-1B10 (antibody, V domains shown)
VH: EVQLVESGGGLVQPGGSLRLSCAASGFTFSDHYMDWVRQVPRKGLEWVGRARNKANSYTTEYAASVKGRFTISRDDSKNSLYLQMNSLKSEDTAVYYCARFLLIADAFDIWGQGTMVTV
VL: DIQMTQSPSSLSASLGDRVTITCRASQGIRHDLGWYQQKPGKAPKLLIYGASTLQTGVPSRFSGSGSGTDFTLTISSLQPEDFATYYCLQKYNYPLTFGGGTKVEIK
Take B3: the binding result in experiment [2] was “no binding (tested: 10, 1, and 0.1 ug/ml)”.

B4: KD8-1D4 (antibody, V domains shown)
VH: EVQLVESGGGLVQPGGSLRLSCAASGFTFSDYYMDWVRQAPGKGLEWVGRTRNKANSYTTEYAASVKGRFTISRDDSKNSLYLQMNSLKTEDTAVYYCARFLLVADAFDIWGQGTMVTV
VL: DIQMTQSPSSLSASVGDRVTITCRASQGIRNDLGWYQQKPGKAPKLLIYGASSLQSGVPSRFSGSGSGTDFTLTISSLQPEDIATYYCLQEYTYPLTFGGGTKVEIK
As to B4, in experiment [2], the binding result was “no binding (tested: 10, 1, and 0.1 ug/ml)”.

B5: KD4-2H4 (rabbit version) (antibody, V domains shown)
VH: EVQLVESGGGLVQPGGSLRLSCAASGFTFSSYWMYWVRQAPGKGLVWVSRINSDGSTTNYADSVKGRFTISRDNAKNTLYLQMNSLRAEDTAVYFCARYAHLGIGWYFDLWGRGTLVTVSS
VL: QSALTQPRSVSGSPGQSVTISCTGTSSDVGGYNYVSWYQQHPGKAPKLMIYDVSKRPSGVPDRFSGSKSGNTASLTISGLQAEDEADYYCCSYAGSYTLLFGGGTKLTVL
notes: also called Rabbit KD4-2H4
As for B5, the spot intensity (fluorescence units) (fluorescence units) in experiment [3] is above 200. Moreover, the binding result in experiment [2] is “no binding (tested: 10, 1, and 0.1 ug/ml)”.

B6: KD4-2H4 (human version) (antibody, V domains shown)
VH: EVQLVESGGGLVQPGGSLRLSCAASGFTFSSYWMYWVRQAPGKGLVWVSRINSDGSTTNYADSVKGRFTISRDNAKNTLYLQMNSLRAEDTAVYFCARYAHLGIGWYFDLWGRGTLVTVSS
VL: QSALTQPRSVSGSPGQSVTISCTGTSSDVGGYNYVSWYQQHPGKAPKLMIYDVSKRPSGVPDRFSGSKSGNTASLTISGLQAEDEADYYCCSYAGSYTLLFGGGTKLTVL
notes: also called human KD4-2H4
For B6, the binding result in experiment [4] is on record as “binds”.

B7: KD6-1A10 (antibody, V domains shown)
VH: VQLVESGGGVVQPGRSLRLSCAASGFSFSNYFMHWVRHVPGKGLEWLATIWYDGSDKYYVDSVKGRFTISRDNSKNTLYLQMGSLRAEDTAMYYCAKGRQRGYYYDMGGYYVFDSWGQGTLVTVSS
VL: QSVLTQPPSASGTPGQGVTISCSGSRSNIGSNTVNWYRQFPGTAPKLLIYKNNQRPSGVPDRFSGSKPGTSAYLAITGLQSDDQADYYCAAWDDSLKGVVFGGGTKLTVL
In the case of B7, in experiment [2], the binding result is “no binding (tested: 10, 1, and 0.1 ug/ml)”.
